Results reported in patent US20200079868A1 (UNIVERSITY OF SOUTHERN CALIFORNIA, published 2020).

T1: CD20 (B-lymphocyte antigen CD20) on CD20+ human lymphoma cells (Raji, SU-DHL-7) (human, UniProt P11836 1-297)
T1 sequence (looked up): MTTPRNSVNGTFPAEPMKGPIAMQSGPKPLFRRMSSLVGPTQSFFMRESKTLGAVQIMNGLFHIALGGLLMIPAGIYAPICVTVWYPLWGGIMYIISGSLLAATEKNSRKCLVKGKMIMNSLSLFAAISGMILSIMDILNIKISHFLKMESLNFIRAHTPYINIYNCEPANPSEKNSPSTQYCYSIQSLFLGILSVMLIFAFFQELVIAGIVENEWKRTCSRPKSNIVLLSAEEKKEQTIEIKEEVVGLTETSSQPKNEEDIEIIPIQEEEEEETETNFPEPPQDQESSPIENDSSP

B1: scFv A192 (anti-CD20 scFv-G(VPGAG)192Y fusion) (scFv)
scFv: QVQLQQPGAELVKPGASVKMSCKASGYTFTSYNMHWVKQTPGRGLEWIGAIYPGNGDTSYNQKFKGKATLTADKSSSTAYMQLSSLTSEDSAVYYCARSTYYGGDWYFNVWGAGTTVTVSAGGGGSGGGGSGGGGSQIVLSQSPAILSASPGEKVTMTCRASSSVSYIHWFQQKPGSSPKPWIYATSNLASGVPVRFSGSGSGTSYSLTISRVEAEDAATYYCQQWTSNPPTFGGGTKLEIKRTGVPGAGVPGAGVPGAGVPGAGVPGAGVPGAGVPGAGVPGAGVPGAGVPGAGVPGAGVPGAGVPGAGVPGAGVPGAGVPGAGVPGAGVPGAGVPGAGVPGAGVPGAGVPGAGVPGAGVPGAGVPGAGVPGAGVPGAGVPGAGVPGAGVPGAGVPGAGVPGAGVPGAGVPGAGVPGAGVPGAGVPGAGVPGAGVPGAGVPGAGVPGAGVPGAGVPGAGVPGAGVPGAGVPGAGVPGAGVPGAGVPGAGVPGAGVPGAGVPGAGVPGAGVPGAGVPGAGVPGAGVPGAGVPGAGVPGAGVPGAGVPGAGVPGAGVPGAGVPGAGVPGAGVPGAGVPGAGVPGAGVPGAGVPGAGVPGAGVPGAGVPGAGVPGAGVPGAGVPGAGVPGAGVPGAGVPGAGVPGAGVPGAGVPGAGVPGAGVPGAGVPGAGVPGAGVPGAGVPGAGVPGAGVPGAGVPGAGVPGAGVPGAGVPGAGVPGAGVPGAGVPGAGVPGAGVPGAGVPGAGVPGAGVPGAGVPGAGVPGAGVPGAGVPGAGVPGAGVPGAGVPGAGVPGAGVPGAGVPGAGVPGAGVPGAGVPGAGVPGAGVPGAGVPGAGVPGAGVPGAGVPGAGVPGAGVPGAGVPGAGVPGAGVPGAGVPGAGVPGAGVPGAGVPGAGVPGAGVPGAGVPGAGVPGAGVPGAGVPGAGVPGAGVPGAGVPGAGVPGAGVPGAGVPGAGVPGAGVPGAGVPGAGVPGAGVPGAGVPGAGVPGAGVPGAGVPGAGVPGAGVPGAGVPGAGVPGAGVPGAGVPGAGVPGAGVPGAGVPGAGVPGAGVPGAGVPGAGVPGAGVPGAGVPGAGVPGAGVPGAGVPGAGVPGAGVPGAGVPGAGVPGAGVPGAGVPGAGVPGAGVPGAGVPGAGVPGAGVPGAGVPGAGVPGAGVPGAGVPGAGVPGAGVPGAGVPGAGVPGAGVPGAGVPGAGVPGAGVPGAGY
modifications: rhodamine (RHD) labeled in the confocal binding assays; site of the label not stated
B2: Rituximab (antibody, V domains shown)
VH: QVQLQQPGAELVKPGASVKMSCKASGYTFTSYNMHWVKQTPGRGLEWIGAIYPGNGDTSYNQKFKGKATLTADKSSSTAYMQLSSLTSEDSAVYYCARSTYYGGDWYFNVWGAGTTVTVSA
VL: QIVLSQSPAILSASPGEKVTMTCRASSSVSYIHWFQQKPGSSPKPWIYATSNLASGVPVRFSGSGSGTSYSLTISRVEAEDAATYYCQQWTSNPPTFGGGTKLEIK

Target: T1, CD20 (B-lymphocyte antigen CD20) on …
Assay: cell-based or functional assay

Row | Binder | IC50, cell viability (MTS/PMS), Raji cells [µM] | IC50, cell viability (MTS/PMS), SU-DHL-7 cells [µM] | IC50, cell viability, SU-DHL-7 cells (figure legend; differs from the text) [µM]
1 | B1 | 32 | 41 | 4
2 | B2 | – | 4 | –
